Assay: label from the status in PepcDB records

Sequence | protein production
MSSLVGLHYATVLPLAAYLLLAVVILLLAMGRDGAARKTFTASLLMIVLGWIPYIAAFLLLDYSLDEVAKNASDELSPYLRIGAAWSGGGGSLYLFSAFLSLAILLQMLLNKGLNRRAMAVFTLLVLTSMTSATLMGAFGTGPGERGGLGINPVLKNYWVVPHPTTTFLGYSFILVGSVALVLGYYRTGLPIQLLGLAFLTFGLVFGGMWSYETFGWGGYWAWDPVETSQLAVWLATVASIHMIGPLRSLNRGFAAYAASSVFLALYVTRSGVSPLHSFAAESFSAVLLLSASLVMLALSMLLFSEGVGETLEKWKSRLQDARWPPRIAEMNLSNILLTVGSVSIALSALIVYSSLLTPSVLKLVGLDTQPPSFEQGVRFYNRLLIPLALVSLYAVAGYYVSVRAGAKAAYSLFATLTVVLAIMGLATVKNTIIISPLSDTTTNLASATLLAAGSISGSVLLAMSLWMLYGMVKGKVAKSVHTLRIVLEKLVHATMIMILVSVAMSGSYAYNQGYSEEVLVPLGGEVSVMGVTISYEGYDYELHQGTVDLKNNLDPSSAILITAREALNMMDEDLSSTIREYRLASAESQSDRTLQTLLKASASNSEYRGVFTSTRGVADAAVVDVRTGENISNIQTAGETVLQLEDPTLEVTIDPKLDPETGRIEGGALSVVFYPERLVVYGIGSPVSLDPYSYLYVRFREPVEINLDDITVNMEEVVVYSTGGSSIEGVVSGQSVLFEGVAIRVVSGELSFGSMNIELPYQLDRGEFFYFMVYKGQAEVLDDILSSSISDLLESGIAGLAAGEDMDDFNVPRRAPAGVSLRLFMEVNGEPVEADLRFEANGEAIGIHGLVIDTIILRRGLTNVYITVQAPLVSGHFGEYHELMVYYLNEAMNTLRPEEYLALASVMAAGYNIASIVSSPSKERAALEVERATIDLYLLSEKLDEKRSSAAEGIVVSVKIVPGVPLLWLTGVLAGVLLLAMASIHFYLGFRQGRLIDT | failed
MSSMVEVEHWNTLRLRIYIGENDKWEGRPLYKVIVEKLREMGIAGATVYRGIYGFGKKSRVHSSDVIRLSTDLPIIVEVVDRGHNIEKVVNVIKPMIKDGMITVEPTIVLWVGTQEEIKKFEEDAIAERQ | not failed
MSSNIAVVGDRDTVTGFRLGGVREGYVVETPDEAEETIRNLIRDGFSIIIVTEKIGDELREFIEETTSSSALPMIIEIPDKTGPSERETDPLRDLIKRVIGVEMVK | failed
MSSNVPADMINLRLILVSGKTKEFLFSPNDSASDIAKHVYDNWPMDWEEEQVSSPNILRLIYQGRFLHGNVTLGALKLPFGKTTVMHLVARETLPEPNSQGQRNREKTGESNCCVIL | not failed
MSSPGGGTRFALVAGTTETAGRAGISAAGADPELMSVTPAADAELVTYGTPVRTDVTPVSPSGCPTPALVTRAAREVLGFDVTVVDGGLAEKTGAPTVSVGARPGKDIAEQDPVSTAHGAFAAARQFGQSLPADELYLGETIPGGTTTALGVLRALGEDGMVSSSLPENPTAQKSEVVAEGLQASSLEPGDAANEPKRAVRRMGDPVLATLAGLTAGAVESDTAVTLAGGSQCVAVAALVRHGGYEGPLGLATTSYVADDESADVRASVDRLDLDLTVTDPGFDRSDHVAMERFVAGEAKEGVGMGGALALAD | not failed
MSSQLDECNRLLWEKCPVGLVLWRKNGALIDANSTYAAILGSTVPETLNFNYWQITPENYLASERTILEQLEQTGCHQAYEKEYLHQDGHLVPVKVSTVIIEKDGEKLMWSSVEDIS | not failed
MSSQVIPALPKTFSSSLDLWREKNDQLVRQAKQLTRDSRPSLRRQQSAQDTLEGLRELLLTLQGLPAAVPALPLELTVLCNCIILRASLVQAFTEDLTQDLQRGLERVLEAQHHLEPKSQQGLKELWHSVLSASSLPPELLPALHCLASLQAVFWMSTDHLEDLTLLLQTLNGSQTQSSEDLLLLLKSWSPPAEESPAPLILQDAESLRDVLLTAFACRQGFQELITGSLPHAQSNLHEAASGLCPPSVLVQVYTALGACLRKMGNPQRALLYLTEALKVGTTCALPLLEASRVYRQLGDRAAELESLELLVEALSATHSSETFKSLIEVELLLPQPDPASPLHCGTQSQAKHLLASRCLQTGRAEDAAEHYLDLLAMLLGGSETRFSPPTSSLGPCIPELCLEAAAALIQAGRALDALTVCEELLNRTSSLLPKMSSLWENARKRAKELPCCPVWVSATHLLQGQAWSQLKAQKEALSEFSQCLELLFRTLPEDKEQGSDCEQKCRSDVALKQLRVAALISRGLEWVASGQDTKALSDFLLSVQICPGNRDGSFYLLQTLKRLDRKNEASAFWREAHSQLPLEDAAGSLPLYLETCLSWIHPPNREAFLEEFGTSVLESCVL | failed
MSSRMARLGLSTYRLAGTVASPVVGLYLTYRTAKGKEDRARRLERFGYPSANRPQGPLVWFHAASVGETNAVIPLIREIRRRDIHVILTTGTITSARLAAERLGQEAIHQYVPLDLKPSVSRFLDYWQPDCAIIAESEIWPATVLELGRRRIPQILVNARMSDRSFARWRRRQSIAEALFENLALVIAQSDVDAERFRDLGAVPVITSGNLKVDTDAPPYDSAVFARYKKQIGDRKTWAAISTFDGEENAAGIVHRVLKERDRQLTIIVPRHPERSDEIEAALVKQGLKVARRTRDDVLSADVDIFLGDTIGEMGLYLRLTEIAFVGRSLFAEGGQNPLEPAMLGCAILSGGNVQNFREAYQKLARSGSARMVRDTEMLAKGVHYLLTNDEARRNMIEAGVATVHEMRGALSATVKGLEPYINPLTVKARLLPKAAAQV | failed
MSSRQQDTAPCNHRFSGSVPVFSAAPCPHPAASFISLPAGSPYDEKRFVPAPRRHVPMLNYIWSGLIIGSLLFALTVDTQELVENRFRNETALPVALDFPDGYAPDARRQPVEIRIDSATYRDVYGVNAAPDPVYAGTLVQTQEGRKVEFDPDADLPEPLATIQSFHATDDNPALRGALQGTSRTTAGVGRTETALQFEPVRFRKLNDIAQAALNFAETAASLALSLIGVLGLMLGLVKIGEEAGLIESLTGIVQPILSPLFPNVPDDHPALANISLNLLANVFGLGNAATPLGIKAMEDLQELNPSDEKASDDMVMLLALNTSSVQLVPPSLLVAIMGLQINQLFFSITLATLCSTVAGILGTLALHRLPYFRATAPHRTADAEDPDE | failed
MSSRTRARGSKRAAGVHTVSIPRQRGRRRAQPFVIVFPESPSLTREALGFIGRALWKGRRALAPTALALLAFAVTGLLHVMAWWSSLILAPLAAGPLVWLAVMQVRRPGRGAVVLWRAGLALLATFTAAWAALAAGFGPLAGPLDLVWLLMWIAAQTAWLFVRRSH | failed
MSSSNQDISIENTDLLTEISVAYYQDGATQEEISRKFAISRAKVGRMLKQARDEGIVEITVKYHPVFSAKIEQRLIERFGVKRALVALDQPNEEAQRLQVSGLVSNYLTSTLKNGMVVTVGQGRNVSSVAHHIGVITPRDCKFVCGIGGIHPRGGMYNADHICRQLAKKYGGTSETLYAPAYAENREQKMAFMQNATVKQTLDLARKADVALVGIGDMSENSYMVDLGWFTPDEVVQSRLKQGVVGDFAGYDFFDIHGNVANTVMSDRVIGLGIEEFRPIAEVIAIAAENSKPLALLGALRTGAIDVIATSVSNALTVLNLDEQMHGNAASES | failed
MSSSSVEQQVVQHFSHTHPLTKVDEYGEFTCGGCKTYGFGKTYRCAPCDYVLHDHCATCPFTLISFMHPQHELRLFVNGSENMCNICHRLVEGVYYHCETCGFDVHPLCTQHHQHVSYVPHPAHLLELSQCGASNTCMVCRGAILSWRYKCGPCMLDVHVECVNSSAPAATEPQMDLNTSQDPQPYNDECGGIHNYEHTNKGQVSGPSKRRRVFRFFKDVTVEVVSSIITEML | failed
MSSTILVLGATGTVGRHVVDGLLAKGEAVKAASRAGKPVAAAEGVAFDYARPETFGPALEGVDRAYVLLASGYVDSKGLLLPVIEAAATRKVKVVLQSVIGVDADDSIPYRQVEIALEKSDTPYVILRPNWFSDNFHTFWKPGIDHGQIALPAAEGKSSFIDARDIAASGVAVLTSSSFDGKAFNLTGPEALSYAEAAAILSEAIGKPVTYNAVSDEAFIEMLTGAGVPAGYASFLASIFYPVRQNWTAVMTGDVETLTGKAPRSLKTYAADYAAALKA | failed
MSSTSPNLQKAIDLASKAAQEDKAGNYEEALQLYQHAVQYFLHVVKYEAQGDKAKQSIRAKCTEYLDRAEKLKEYLKNKEKKAQKPVKEGQPSPADEKGNDSDG | not failed
MSSVPSAGQVRRRRVFYIPGYDPIHPRRYRELYRKESAEQARISGYSVTLKPKTTKGPYGWHVRSEQDGAEVAADVEVLVWSDIVRGSMSNTIPATYAQLARTAWTYIASGVLWRLMRLRKGPVIAALYPVGMLLAQLFAALFLVWLGWRLGGLTGWPLAALAGMGVGAGAGVYLLRWFRSKDGTFFAYYLMHDYAYSARWRGANPPELEARIGDFAERIAGALASDADEVLVVGHSSGAHVGVSVLADLIRAGRVPADGPALGFLTLGQVVPMVSFLPEAQRLRADLHYLCTRDELAWVDVSAPGDGCAFALCDPVSVSGVAPATGKRWPLVLSAAFTKTLSPARWAELRWRFFRLHFQYLCAFDQVGDYDYFRITAGPQTLAARYRDRAPSKSRIERAVSKYTDMGAS | failed
MSSWRPAVRTDTGWPLIRRTARCHMLRNPKNAGWCRSSAATASWRSCTVPRASAWPTSRTAVPRPMVGYQCGQVFRACCVKSQETGDLDVGGLQETDKIIEVEEEQEDPYLNDRCRGGGPCKQQCRDTGDEVVCSCFVGYQLLSDGVSCEDVNECITGSHSCRLGESCINTVGSFRCQRDSSCGTGYELTEDNSCKDIDECESGIHNCLPDFICQNTLGSFRCRPKLQCKSGFIQDALGNCIDINECLSISAPCPIGHTCINTEGSYTCQKNVPNCGRGYHLNEEGTRCVDVDECAPPAEPCGKGHRCVNSPGSFRCECKTGYYFDGISRMCVDVNECQRYPGRLCGHKCENTLGSYLCSCSVGFRLSVDGRSCEDINECSSSPCSQECANVYGSYQCYCRRGYQLSDVDGVTCEDIDECALPTGGHICSYRCINIPGSFQCSCPSSGYRLAPNGRNCQDIDECVTGIHNCSINETCFNIQGGFRCLAFECPENYRRSAATLQQEKTDTVRCIKSCRPNDVTCVFDPVHTISHTVISLPTFREFTRPEEIIFLRAITPPHPASQANIIFDITEGNLRDSFDIIKRYMDGMTVGVVRQVRPIVGPFHAVLKLEMNYVVGGVVSHRNVVNVHIFVSEYWF | failed
MSTDFDRIYLNQSKFSGRFRIADSGLGWKISTSGGSAANQARKPFLLPATELSTVQWSRGCRGYDLKINTKNQGVIQLDGFSQDDYNLIKNDFHRRFNIQVEQREHSLRGWNWGKTDLARNEMVFALNGKPTFEIPYARINNTNLTSKNEVGIEFNIQDEEYQPAGDE | not failed
MSTDRETVRSYDAVAAEYAAEAAVMPEWVATEIDVFVTELSGSGRVLEIGSGGGRDALELEKRGMSVRRTDISKGFVELLRESGFEADLLDPLTDDLADPQRPSMPYDGIWACACLIHVARGDFGTVLGRLAEATRSGGRLHVSVREGDGEDLSTHGSAAAPRRYVETYWREPALRSALTDAGWIVNDVRRYVGRPHDRWLSVRASRA | failed
MSTETAEKPGETTPESHVFEADVARLLHMMVHSVYSDKDVFLRELVSNAADACEKLRYEAITTPGLLTSDPDPRIQLRLDADNRQLILEDNGIGMSRAELIEALGTIARSGTRAFMERIEASKADAAKTGEDAQLIGQFGVGFYSCFMVADKVDVVTRRAGETQAWIWSSDGKGSYSISEIDAESAPARGTRITLHLMEDAKDYATRARVERIVKQQSGHVPVAITLVEKPGDEPTRITEGTALWTRPKSEISSEDYADFYRGIAGQYDEPALTVHFRAEGRHEYTALAFVPGTPPFDLFDPDRKGRIKLYVKRVFITDDAELLPRYLRFVRGLVDTADLPLNVSREMIQESPILSAIRKGVTNRILTSVEKLAQNEPETYKTLWENFGAVLKEGLYEDFERRSQLLGLTRFRTTTSGDDQRSLADYLKDLKPEQDSIYYLAGSNIEQLRASPQLEGFRARGIEVLLLSDQIDSFWVMNAPEFEGKTFKSVSQGAADLAKFAKADAGADSDQDSNDQAKADIAGFLALAKEQLKDQVADVRASDRLTESPVCLVAPESGYDRQLEKILAGAGQLASTSKPVLELNADHVLVKAMAGAQHTPALQNDAIHLLYDQARILDGEKPADARAFAERMGRLLEKALRA | failed

From a protein production outcome set (Wang et al. 2014)
